The target in the test is T1, SARS-CoV-2 spike RBD (Arg319-Asn532) fused to a His tag (SARS-CoV-2, UniProt P0DTC2).
T1 construct: also called SARS-CoV-2 spike RBD-His; SARS-CoV-2-RBD-His; not shown: His tag, N-terminal, kept
Kind of test: radioligand binding. Particulars: both partners purified.

B1: ^68Ga-Nb1159 (nanobody Nb11-59 conjugated to NOTA and radiolabeled with ^68Ga) (VHH)
VHH: EVQLQESGGGLVQPGGSLRLSCAASGFTFSSYDMSWVRQAPGKGLEWVSAINSSGGSTYYADSVKGRFTISRDNAKNTLYLQMNSLKTEDTAVYYCAPSQTYGGSWYWDPIGDWGQGTLVTVSS
notes: also called ^68Ga-NOTA-Nb1159; NOTA-Nb1159 (before labelling)
As to B1, the Kd is 25.5 nM.

The Kd is the concentration at which binding is half-saturated.

The values are drawn from PMC9343077 (Research, 2022).
